Data reported in article PMC9916836.

Target: T1, UvrY-His6 (Escherichia coli O157:H7 (EHEC; EDL933?)) (UniProt P66798)
T1 sequence: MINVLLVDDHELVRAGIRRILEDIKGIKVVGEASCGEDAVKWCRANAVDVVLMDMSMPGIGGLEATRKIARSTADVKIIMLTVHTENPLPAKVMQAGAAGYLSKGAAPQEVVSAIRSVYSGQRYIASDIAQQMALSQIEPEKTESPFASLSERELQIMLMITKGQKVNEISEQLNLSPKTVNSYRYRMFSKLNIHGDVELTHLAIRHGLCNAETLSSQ
Assay: EMSA

Row | Sequence | binding
1 | AGATTCATCTGCAGGCTCTGAAGTAAGTATACGTGTGAATATTATTGCTTGAAAAAGCGTATTGGATAATATATACAGTATATGTACTTTATGTACATTGCAACTATTTAAATAATATAATAGTTGCCTATGGGATAATTTGGTTATTTATAACCAGGTAAATGTCTAAATTAGACAAAAGGAGAAAGATCAATGGAAGCAGCAAATTTAAGTCCTTCTGGTGCAGTAATG (double strand) [PLEE2/3] | no binding
2 | GTTATCGCAGGGAGCCACACAGCGTGTGTTGGACGCGACTCAGCTTTACCTTGGTGAGATTGGTTATTCACCACTGTTAACGGCCGAAGAAGAAGTTTATTTTGCGCGTCGCGCACTGCGTGGAGATGTCGCCTCTCGCCGCCGGATGATCGAGAGTAACTTGCGTCTGGTGGTAAAA (double strand) [rpoS coding region] | no binding
3 | GGGTGCTACTTTACGCCTTTGCTTTAAACAAACAATCAACCGCCATCAGTATTTGCACATTTTCAGAGTTTTATATAAAAGCAATTAACTGATTTATATAGCTTATTTGACATGCATCGCAGAATTTTCTCTGCTATTTCGCATAAAGACTATCGGCAATGTCTCACAAAGCGTATGGCTTTTACTTACAACGCTCACGCCGAAAAATCCGCCTTTTATTATGGTTCAGGTATAATCGCCGCAAAGCTTTGACTGACGGAGACGACCGCTT (double strand) [PcsrC] | binds
4 | CATTAGCCATTGGAAACTCACGTAATCATTAATTATGAATATTCCATTAAATAGTACTGTACAACAGCTTCCTTTCTACTCTATTCTTAGACGATGTAAGTTCACCATATTTTTTCTCATTGTTCAACCACCAGGATGAATAAAATTTAAAAATGTTATCCTCATATAAAATAAAACTTCTCAATGGTGCGATGCG (double strand) [PLEE4] | no binding
